Where two headings read alike, the source gives them in different places.
B1: antibody #21 (antibody, V domains shown)
VH: EVQLVESGGGLVQPGGSLRLSCAASGFTINNGSIHWVRQAPGKGLEWVAWIWPFGGYTYYADSVKGRFTISADTSKNTAYLQMNSLRAEDTAVYYCARGSYGYDYWGQGTLVTVSS
VL: DIQMTQSPSSLSASVGDRVTITCRASQDVGSNVAWYQQKPGKAPKLLIFSAPFLYSGVPSRFSGSGSGTDFTLTISSLQPEDFATYYCQQFYDWPLTFGQGTKVEIKR
notes: also called D21
B2: antibody #22 (antibody, V domains shown)
VH: EVQLVESGGGLVQPGGSLRLSCAASGFTISSGSIHWVRQAPGKGLEWVASIWPFGGYTSYADSVKGRFTISADTSKNTAYLQMNSLRAEDTAVYYCARGSFGSDYWGQGTLVTVSS
VL: DIQMTQSPSSLSASVGDRVTITCRASQDVDDNVAWYQQKPGKAPKLLISSSSGLYSGVPSRFSGSGSGTDFTLTISSLQPEDFATYYCQQSYNGPITFGQGTKVEIKR
notes: also called D22
B3: antibody #36 (antibody, V domains shown)
VH: EVQLVESGGGLVQPGGSLRLSCAASGFTINRYSIHWVRQAPGKGLEWVAGIWPFGGDTTYADSVKGRFTISADTSKNTAYLQMNSLRAEDTAVYYCARGATSHDYWGQGTLVTVSS
VL: DIQMTQSPSSLSASVGDRVTITCRASQDVTTTVAWYQQKPGKAPKLLINKGSWLYSGVPSRFSGSGSGTDFTLTISSLQPEDFATYYCQQYNKWPLTFGQGTKVEIKR
notes: also called IgG1#36; D36
B4: antibody #11 (antibody, V domains shown)
VH: EVQLVESGGGLVQPGGSLRLSCAASGFTIQDRMIHWVRQAPGKGLEWVASILPFLGATWYADSVKGRFTISADTSKNTAYLQMNSLRAEDTAVYYCARSWFSPFDYWGQGTLVTVSS
VL: DIQMTQSPSSLSASVGDRVTITCRASQDVGGSVAWYQQKPGKAPKLLISFPGGLYSGVPSRFSGSGSGTDFTLTISSLQPEDFATYYCQQYFSWPITFGQGTKVEIKR
notes: also called D11; C11
B5: antibody #7 (antibody, V domains shown)
VH: EVQLVESGGGLVQPGGSLRLSCAASGFTIEDRWIHWVRQAPGKGLEWVASIWPMEGLTRYADSVKGRFTISADTSKNTAYLQMNSLRAEDTAVYYCARGYYGFDYWGQGTLVTVSS
VL: DIQMTQSPSSLSASVGDRVTITCRASQDVEARVAWYQQKPGKAPKLLIFTSTRLYSGVPSRFSGSGSGTDFTLTISSLQPEDFATYYCQQIMPLPTTFGQGTKVEIKR
notes: also called C07
B6: antibody #33 (antibody, V domains shown)
VH: EVQLVESGGGLVQPGGSLRLSCAASGFTINNGGIHWVRQAPGKGLEWVAGIWPFWGSTSYADSVKGRFTISADTSKNTAYLQMNSLRAEDTAVYYCARGSYGFDYWGQGTLVTVSS
VL: DIQMTQSPSSLSASVGDRVTITCRASQDVYSSVAWYQQKPGKAPKLLIFGSSFLYSGVPSRFSGSGSGTDFTLTISSLQPEDFATYYCQQYYDWPITFGQGTKVEIKR
notes: also called D33; C33
B7: antibody #48 (antibody, V domains shown)
VH: EVQLVESGGGLVQPGGSLRLSCAASGFTISNFGIHWVRQAPGKGLEWVAGIWPYGGYTFYADSVKGRFTISADTSKNTAYLQMNSLRAEDTAVYYCARFDSYSYSGYMDYWGQGTLVTVSS
VL: DIQMTQSPSSLSASVGDRVTITCSGSSSNIGDNNVYWYQQKPGKAPKLLIFGPAYLYSGVPSRFSGSGSGTDFTLTISSLQPEDFATYYCAAGYSDNNGITFGQGTKVEIKR
notes: also called C48

Columns and labels:
MERS-CoV-N protein = target: T1, MERS-CoV-N protein (MERS-CoV, UniProt K9N4V7 1-411); assay: ELISA, IgG1 on recombinant N protein
T1 construct: also called MERS-CoV nucleocapsid protein

HCoV-OC43-N protein = target: T2, HCoV-OC43-N protein (HCoV-OC43, UniProt P33469 1-448); assay: ELISA, IgG1 on recombinant N protein
T2 construct: also called OC43-CoV N
T2 chain: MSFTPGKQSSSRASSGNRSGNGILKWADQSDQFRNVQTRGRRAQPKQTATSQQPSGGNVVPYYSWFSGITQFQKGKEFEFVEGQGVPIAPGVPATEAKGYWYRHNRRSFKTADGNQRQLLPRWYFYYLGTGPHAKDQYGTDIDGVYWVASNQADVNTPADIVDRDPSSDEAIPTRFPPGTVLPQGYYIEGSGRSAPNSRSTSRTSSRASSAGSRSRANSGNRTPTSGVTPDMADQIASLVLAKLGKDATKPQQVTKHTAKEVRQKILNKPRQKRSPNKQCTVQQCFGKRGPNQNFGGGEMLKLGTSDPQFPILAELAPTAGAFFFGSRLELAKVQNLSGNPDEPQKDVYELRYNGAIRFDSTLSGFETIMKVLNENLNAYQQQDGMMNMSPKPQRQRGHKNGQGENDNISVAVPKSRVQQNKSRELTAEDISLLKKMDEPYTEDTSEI

HCoV-NL63-N protein = target: T3, HCoV-NL63-N protein (HCoV-NL63, UniProt Q6Q1R8 1-377); assay: ELISA, IgG1 on recombinant N protein
T3 construct: also called NL63-CoV N
T3 sequence: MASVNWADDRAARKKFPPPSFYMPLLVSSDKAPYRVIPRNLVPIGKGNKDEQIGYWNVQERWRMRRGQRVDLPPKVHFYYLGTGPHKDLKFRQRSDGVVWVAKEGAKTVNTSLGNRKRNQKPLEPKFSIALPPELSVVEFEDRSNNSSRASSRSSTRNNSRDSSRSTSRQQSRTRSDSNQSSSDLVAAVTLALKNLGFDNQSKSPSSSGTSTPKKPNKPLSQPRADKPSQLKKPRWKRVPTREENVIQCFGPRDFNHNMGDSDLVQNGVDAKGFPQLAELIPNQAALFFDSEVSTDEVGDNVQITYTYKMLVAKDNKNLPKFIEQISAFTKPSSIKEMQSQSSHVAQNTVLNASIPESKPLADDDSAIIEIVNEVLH

HCoV-HKU1-N protein = target: T4, HCoV-HKU1-N protein (HCoV-HKU1, UniProt Q5MQC6 1-441); assay: ELISA, IgG1 on recombinant N protein
T4 construct: also called HKU1-CoV N
T4 chain: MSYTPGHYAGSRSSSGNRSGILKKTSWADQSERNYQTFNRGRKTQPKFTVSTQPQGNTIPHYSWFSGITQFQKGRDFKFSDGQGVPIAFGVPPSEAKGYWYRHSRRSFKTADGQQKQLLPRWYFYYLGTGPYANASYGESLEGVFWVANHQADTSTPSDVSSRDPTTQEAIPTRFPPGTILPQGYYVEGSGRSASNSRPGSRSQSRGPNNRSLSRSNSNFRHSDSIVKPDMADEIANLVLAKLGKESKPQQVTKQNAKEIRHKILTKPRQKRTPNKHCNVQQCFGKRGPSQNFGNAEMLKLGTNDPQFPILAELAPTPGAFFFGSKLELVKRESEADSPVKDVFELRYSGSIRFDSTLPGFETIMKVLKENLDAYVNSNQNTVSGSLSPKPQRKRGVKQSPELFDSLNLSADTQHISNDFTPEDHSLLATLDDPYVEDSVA

SARS-CoV-1-N protein = target: T5, SARS-CoV-1-N protein (SARS-CoV-1, UniProt P59595 1-422); assay: ELISA, IgG1 on recombinant N protein
T5 construct: also called SARS-CoV N; SARS-CoV-N

SARS-CoV-2-N protein [1] = target: T6, SARS-CoV-2-N protein (SARS-CoV-2, UniProt P0DTC9 1-419); assay: ELISA, IgG1 on recombinant N protein
T6 construct: also called nucleocapsid protein of SARS-CoV-2

SARS-CoV-2-N protein [2] = target: T6, SARS-CoV-2-N protein

Binder	EC50 (MERS-CoV-N protein) [µg/mL]	EC50 (HCoV-OC43-N protein) [µg/mL]	EC50 (HCoV-NL63-N protein) [µg/mL]	EC50 (HCoV-HKU1-N protein) [µg/mL]	EC50 (SARS-CoV-1-N protein) [µg/mL]	EC50 (SARS-CoV-2-N protein [1]) [µg/mL]	EC50 (SARS-CoV-2-N protein [2]) [µg/mL]
B1	> 2	> 2	> 2	> 2	0.0214	0.018	–
B2	> 2	> 2	> 2	> 2	0.0039	0.0044	–
B3	> 2	> 2	> 2	> 2	0.002	0.0008	0.0288
B4	> 2	> 2	> 2	> 2	0.0069	–	–
B5	> 2	> 2	> 2	> 2	0.0037	0.0037	0.018
B6	> 2	> 2	> 2	> 2	0.0016	0.0014	0.0255
B7	> 2	> 2	> 2	> 2	0.0186	0.0467	0.0207

From US20230168249A1 (ACADEMIA SINICA, published 2023)
